Patent US20250011455A1 (HANGZHOU BANGSHUN PHARMACEUTICAL, published 2025)
Changes are numbered by the printed parent chain. Numbers in names are those of the source.

T1: human CD39 on the cell surface (human, UniProt P49961 1-510)
T1 sequence (looked up): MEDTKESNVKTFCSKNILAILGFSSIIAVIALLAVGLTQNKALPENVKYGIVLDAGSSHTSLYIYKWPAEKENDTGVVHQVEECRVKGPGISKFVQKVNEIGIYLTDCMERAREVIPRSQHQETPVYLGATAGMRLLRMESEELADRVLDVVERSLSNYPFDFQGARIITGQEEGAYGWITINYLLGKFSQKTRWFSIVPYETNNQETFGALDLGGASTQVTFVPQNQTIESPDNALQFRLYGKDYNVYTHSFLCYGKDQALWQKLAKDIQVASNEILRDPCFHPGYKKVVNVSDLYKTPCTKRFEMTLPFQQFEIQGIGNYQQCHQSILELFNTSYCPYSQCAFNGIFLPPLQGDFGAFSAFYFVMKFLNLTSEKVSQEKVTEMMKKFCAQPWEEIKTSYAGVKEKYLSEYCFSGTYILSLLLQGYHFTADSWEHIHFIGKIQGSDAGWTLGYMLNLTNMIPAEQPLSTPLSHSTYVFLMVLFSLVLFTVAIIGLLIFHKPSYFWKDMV

T2: hCD39-ECD-His (ACRO, CD9-H52H4) (human, UniProt P49961 38-478)
T2 construct: extracellular domain; Bought protein; also called recombinant antigen; target antigen; not shown: His tag
T2 sequence (looked up): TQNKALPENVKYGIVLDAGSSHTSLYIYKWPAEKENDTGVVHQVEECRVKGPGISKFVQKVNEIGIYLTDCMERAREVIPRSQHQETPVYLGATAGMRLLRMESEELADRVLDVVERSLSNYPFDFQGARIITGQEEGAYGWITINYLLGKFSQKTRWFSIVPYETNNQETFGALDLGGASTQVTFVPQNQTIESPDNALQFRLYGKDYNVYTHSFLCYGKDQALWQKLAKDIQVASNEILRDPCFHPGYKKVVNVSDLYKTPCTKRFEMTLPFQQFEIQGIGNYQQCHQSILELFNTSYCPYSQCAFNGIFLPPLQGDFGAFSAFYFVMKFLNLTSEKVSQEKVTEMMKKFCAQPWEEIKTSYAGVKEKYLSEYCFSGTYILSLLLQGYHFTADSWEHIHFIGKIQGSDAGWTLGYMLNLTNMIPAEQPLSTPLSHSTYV

B1: humanized antibody F03-12 (antibody, human IgG4 S228P, kappa, V domains shown)
VH: QVQLVQSGAEVKKPGASVKVSCKASGYTFTNYWMYWVRQAPGQGLEWMGRIAPSSGATKYNEKFKNRVTLTVDTSISTAYMELSRLRSDDTAVYYCARSGIYYDYDWFFDVWGQGTTVTVSS
VL: DIQMTQSPSSLSASVGDRVTITCKASQDINKYIGWYQQKPGKAPKLLIHYTSTLQPGVPSRFSGSGSGRDYTFTISSLQPEDIATYYCLQYHALLFTFGQGTKLEIKR
notes: Human IgG4 (S228P) and human kappa constant regions
B2: humanized antibody F03-8 (antibody, human IgG4 S228P, kappa, V domains shown)
VH: B1 VH with M48I, V68A
VL: B1 VL with R69T, Y71F
notes: as for B1
B3: humanized antibody F03-14 (antibody, human IgG4 S228P, kappa)
heavy: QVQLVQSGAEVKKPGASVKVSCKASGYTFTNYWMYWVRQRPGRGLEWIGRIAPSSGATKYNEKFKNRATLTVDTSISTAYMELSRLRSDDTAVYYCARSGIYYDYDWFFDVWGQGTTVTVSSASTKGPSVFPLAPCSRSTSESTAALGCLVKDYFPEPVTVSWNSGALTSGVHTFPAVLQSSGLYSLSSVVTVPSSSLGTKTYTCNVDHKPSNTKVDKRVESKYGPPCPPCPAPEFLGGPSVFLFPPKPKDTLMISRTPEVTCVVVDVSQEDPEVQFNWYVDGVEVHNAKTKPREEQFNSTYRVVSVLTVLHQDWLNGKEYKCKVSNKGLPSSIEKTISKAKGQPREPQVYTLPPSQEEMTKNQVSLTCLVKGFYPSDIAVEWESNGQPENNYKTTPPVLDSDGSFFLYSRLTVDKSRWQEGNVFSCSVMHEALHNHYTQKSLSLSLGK
light: DIQMTQSPSSLSASVGDRVTITCKASQDINKYIGWYQQKPGKAPKLLIHYTSTLQPGVPSRFSGSGSGRDYTFTISSLQPEDIATYYCLQYHALLFTFGQGTKLEIKRTVAAPSVFIFPPSDEQLKSGTASVVCLLNNFYPREAKVQWKVDNALQSGNSQESVTEQDSKDSTYSLSSTLTLSKADYEKHKVYACEVTHQGLSSPVTKSFNRGEC
notes: as for B1
B4: humanized antibody F03-13 (antibody, human IgG4 S228P, kappa, V domains shown)
VH: B1 VH with M48I, V68A
VL: B1 VL
notes: as for B1
B5: humanized antibody F03-15 (antibody, human IgG4 S228P, kappa)
heavy: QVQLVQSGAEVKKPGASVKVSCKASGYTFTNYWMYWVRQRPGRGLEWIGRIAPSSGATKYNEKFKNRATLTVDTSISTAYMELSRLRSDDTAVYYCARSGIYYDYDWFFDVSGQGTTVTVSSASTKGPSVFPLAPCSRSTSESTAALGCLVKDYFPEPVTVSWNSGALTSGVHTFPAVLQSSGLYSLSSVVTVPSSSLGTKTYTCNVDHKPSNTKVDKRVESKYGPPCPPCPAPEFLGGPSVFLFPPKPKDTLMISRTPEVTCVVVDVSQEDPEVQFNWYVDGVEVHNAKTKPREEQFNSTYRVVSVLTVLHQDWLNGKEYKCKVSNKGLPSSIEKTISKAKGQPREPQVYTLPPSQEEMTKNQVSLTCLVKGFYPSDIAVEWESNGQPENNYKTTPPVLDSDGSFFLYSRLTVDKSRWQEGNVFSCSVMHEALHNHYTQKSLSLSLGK
light: B3 light
notes: as for B1
B6: humanized antibody F03-6 (antibody, human IgG4 S228P, kappa, V domains shown)
VH: B1 VH with L70M, V72R
VL: B1 VL with R69T, Y71F
notes: Human IgG4 (S228P) heavy chain constant region and human kappa constant region
B7: humanized antibody F03-11 (antibody, human IgG4 S228P, kappa, V domains shown)
VH: B1 VH with L70M, V72R
VL: B1 VL
notes: as for B1
B8: humanized antibody F03-7 (antibody, human IgG4 S228P, kappa, V domains shown)
VH: B1 VH
VL: B1 VL with R69T, Y71F
notes: as for B1
B9: chimeric antibody F03 (antibody, human IgG4 S228P, kappa, V domains shown)
VH: QVQLQQPGAELVKPGASVKLSCKTSGYTFTNYWMYWVKHRPGRGLEWIGRIAPSSGATKYNEKFKNKATLTVDKPSSTAYMQLSSLTSEDSAVYYCARSGIYYDYDWFFDVSGTGTTVTVSS
VL: DIQMTQSPSSLSASLGGKVTITCKASQDINKYIGWYQHAPGKGPRLLIHYTSTLQPGIPSRFSGSGSGRDYSLSISNLEPEDIATYYCLQYHALLFTFGSGTKLELKR
notes: Variable regions of murine mF03 on human IgG4 (S228P) and human kappa constant regions; expressed in CHO-S cells

Target: T1, human CD39 on the cell surface
Assay: cell-based or functional assay

Enzymatic activity inhibition (EC50 nM) | Binder
0.06 nM | B1
0.06 nM | B2
0.05 nM | B3
0.09 nM | B4
0.02 nM | B5
0.09 nM | B6
0.03 nM | B7
0.15 nM | B8
0.09 nM | B9

Target: T1, human CD39 on the cell surface
Assay: FACS on SK-MEL-28 cells (natural human CD39)

EC50 | Binder
1.12 nM | B1
1 nM | B2
0.79 nM | B3
1 nM | B4
1.11 nM | B5
1.27 nM | B6
0.94 nM | B7
0.89 nM | B8
2.07 nM | B9

Target: T2, hCD39-ECD-His (ACRO, CD9-H52H4)
Assay: SPR, Biacore 8K, antibody captured by anti-human IgG Fc, hCD39-ECD-His as analyte
Protocol: The binding kinetics between humanized antibodies and a recombinant antigen were tested using Biacore 8K (GE, biomolecule interaction analyzer). Specifically, an anti-human IgG Fc antibody was directly immobilized on a biosensor chip to capture a test antibody. The antigen hCD39-ECD-His (ACRO, CD9-H52H4) was used as the mobile phase, and 7 concentration gradients (at an initial concentration of 200 nM, 2-fold gradient dilution) were used. The association rate constant ka (M⁻¹ s⁻¹) and dissociation rate constant kd (s⁻¹) were determined. Then, based on the formula KD=kd/ka and the kinetic rate constants, the equilibrium dissociation constant KD (M) of the reaction between the antibody and the relevant target protein was calculated. The humanized antibodies of the present invention maintained high affinity of the chimeric antibody F03 for the target antigen.

Kd | koff | kon | Binder
3.68 nM | 0.000331 s⁻¹ | 89900 M⁻¹ s⁻¹ | B1
4.43 nM | 0.00031 s⁻¹ | 69800 M⁻¹ s⁻¹ | B3
3.33 nM | 0.000176 s⁻¹ | 52800 M⁻¹ s⁻¹ | B5
4.2 nM | 0.000336 s⁻¹ | 80100 M⁻¹ s⁻¹ | B7
2.67 nM | 0.000252 s⁻¹ | 94300 M⁻¹ s⁻¹ | B9

Target: T1, human CD39 on the cell surface
Assay: FACS on CHOK1-hCD39 cells, FITC-labelled goat anti-human IgG Fc secondary antibody, mean fluorescence intensity (MFI)
Protocol: The binding of the chimeric antibody F03 of the present invention to CD39 on the cell membrane surface was assayed by FACS. Specifically, CHOK1-hCD39 cells were collected and added to a 96-well plate at 1-3×10⁵ cells/well, the serially diluted chimeric antibody F03 (diluted with 1×PBS to 16.7 μg/mL as an initial concentration, 3-fold gradient dilution) was added, and the mixture was incubated at 4° C. for 30 min; after washing with PBS, an FITC-labeled goat anti-human IgG Fc secondary antibody (Jackson Immunoresearch, 109095008) diluted at 1:200 was added, and the resulting mixture was incubated at 4° C. for 30 min; after washing with PBS, the cell fluorescence intensity was detected using an FACS instrument (Beckman). Data were processed by GraphPad software.

EC50 | Binder
2.19 mg/L | B9
